In patent US20150203579A1 (Regeneron, published 2015):
Read-outs that look alike come from different tables or passages of the source. One block for each binder: values may come before it.

Experiments:
[1] = target: T1, recombinant human PD-1 expressed with a C-terminal myc-myc-hexahistidine tag (human); test: SPR (Biacore), mAb captured, hPD-1-MMH injected, 25 C;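 also: rate constants obtained by fitting sensorgrams to a 1:1 binding model, KD derived as kd/ka and half-life as ln2/(60·kd) in minutes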
T1 construct: also called hPD-1-MMH; human PD-1-MMH

[2] = target: PD-1 chimera: extracellular domain of human PD-1 with trans-membrane and cytoplasmic domains of human CD300a, … (human, UniProt Q9UGN4 181-299, limits assumed); test: cell-based or functional assay
monkey PD-1 with mFc [3] = target: T2, monkey PD-1 with mFc (monkey); test: SPR, captured mAb, 37 C;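 also: Real-time Biacore surface plasmon resonance biosensor readout of PD-1 reagent binding to purified anti-PD-1 monoclonal antibodies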
T2 construct: also called monkey PD-1-mFc; monkey PD-1 dimer
T2 chain: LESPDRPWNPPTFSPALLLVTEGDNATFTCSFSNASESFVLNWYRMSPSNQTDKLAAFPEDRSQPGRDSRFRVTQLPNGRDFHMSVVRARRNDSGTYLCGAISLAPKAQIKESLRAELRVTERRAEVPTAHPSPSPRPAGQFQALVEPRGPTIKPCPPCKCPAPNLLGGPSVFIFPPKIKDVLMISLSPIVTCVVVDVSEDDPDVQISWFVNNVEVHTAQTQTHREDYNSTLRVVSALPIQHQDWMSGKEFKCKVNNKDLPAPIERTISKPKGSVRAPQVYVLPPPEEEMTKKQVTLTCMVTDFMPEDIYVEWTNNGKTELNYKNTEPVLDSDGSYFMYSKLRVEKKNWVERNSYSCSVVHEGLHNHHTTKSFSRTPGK

[4] = target: T3, PD-1 chimera: extracellular domain of human PD-1 with trans-membrane and cytoplasmic domains of human CD300a, … (human, UniProt Q9UGN4 181-299, limits assumed); test: cell-based or functional assay; remark: listed apart in the source
[5] = target: T4, full length human PD-1 on HEK293/hPD-1 cells (human, UniProt Q15116 25-288); test: FACS dose response, HEK293/hPD-1 cells
monkey PD-1 with mFc [6] = target: T2, monkey PD-1 with mFc; test: SPR, captured mAb, 25 C;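 also: purified anti-PD-1 antibodies tested on Biacore 4000 or T200 instruments, rate constants obtained via 1:1 binding model fit, with KD as kd/ka and half-life as ln2/(60·kd)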
[7] = target: T4, full length human PD-1 on HEK293/hPD-1 …; test: FACS, 100 nM mAb, HEK293/hPD-1 cells;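 also: antibodies incubated with cells for 15-30 min on ice, bound antibody detected through a secondary F(ab′)2 by flow cytometry, with parental HEK293 cells tested in parallel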
[8] = target: T5, recombinant human PD-1 dimer expressed with a C-terminal mouse IgG2a Fc tag (human); test: competition ELISA: 100 pM hPD-1-mFc to coated hPD-L2-hFc
T5 construct: also called hPD-1-mFc

[9] = target: T4, full length human PD-1 on HEK293/hPD-1 …; test: FACS, 100 nM mAb
[10] = target: T5, recombinant human PD-1 dimer expressed …; test: competition ELISA: 1.5 nM hPD-1-mFc to coated hPD-L1-hFc
[11] = target: T4, full length human PD-1 on HEK293/hPD-1 …; test: FACS dose response, HEK293/hPD-1 cells; remark: listed apart in the source
[12] = target: T3, PD-1 chimera: extracellular domain of …; test: cell-based or functional assay; remark: listed apart in the source
[13] = target: T4, full length human PD-1 on HEK293/hPD-1 …; test: FACS dose response, HEK293/hPD-1 cells; No EC50 determined
[14] = target: T5, recombinant human PD-1 dimer expressed …; test: BLI Octet: 100 nM hPD-1-mFc + 500 nM mAb to captured hPD-L1-hFc
[15] = target: T6, dimeric biotinylated human PD-1 protein with a C-terminal human Fc tag (human, biotinylated (sites not given)); test: competition ELISA: 200 pM biot-hPD-1-hFc to coated hPD-L1-mFc
T6 construct: also called biot-hPD-1-hFc

[16] = target: T6, dimeric biotinylated human PD-1 protein …; test: competition ELISA: 200 pM biot-hPD-1-hFc to coated hPD-L1-mFc; * below theoretical bottom 1.0E-10 M
[17] = target: T5, recombinant human PD-1 dimer expressed …; test: competition ELISA: 1.5 nM hPD-1-mFc to coated hPD-L1-hFc; * below theoretical bottom 7.5E-10 M
[18] = target: T7, recombinant human PD-1 expressed with a C-terminal human IgG1 Fc tag (human); test: SPR Biacore 3000: 100 nM hPD-1.hFc + 500 nM mAb to captured hPD-L1.mFc;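 also: inhibition study with anti-PD-1 mAbs, SPR responses tracked in real time and read at the close of each step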
T7 construct: also called hPD-1-hFc; hPD1-hFc

[19] = target: T8, recombinant human PD-L1 expressed with a C-terminal mouse IgG2a Fc tag (human); test: SPR Biacore 3000: 500 nM mAb alone (no hPD-1.hFc) over captured hPD-L1.mFc surface, control
T8 construct: also called hPD-L1-mFc; hPD-L1.mFc

[20] = target: T9, human PD-1 dimer (human PD-1-mFc or human PD-1-hFc) (human, UniProt Q15116 25-170); test: SPR, mAb captured, 37C;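 also: Real-time Biacore biosensor, PD-1 dimer flowed over anti-PD-1 antibody surface, rate constants fitted to a 1:1 model, KD derived as kd/ka and t½ as ln2/(60·kd)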
T9 construct: also called hPD-1-mFc; hPD1-hFc

[21] = target: T10, recombinant cynomolgus monkey PD-1 expressed with a C-terminal myc-myc-hexahistidine tag (cynomolgus monkey (Macaca fascicularis)); test: SPR, mAb captured, 25C; 25 C
T10 construct: monomeric; also called MfPD-1-MMH
T10 chain: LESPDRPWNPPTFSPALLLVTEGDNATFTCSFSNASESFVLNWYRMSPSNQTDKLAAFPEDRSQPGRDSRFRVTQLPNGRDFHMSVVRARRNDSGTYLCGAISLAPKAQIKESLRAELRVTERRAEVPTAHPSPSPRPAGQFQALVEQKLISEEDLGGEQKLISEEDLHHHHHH

[22] = target: T9, human PD-1 dimer (human PD-1-mFc or …); test: SPR, mAb captured, 25C;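 also: surface plasmon resonance on Biacore, PD-1 flowed over captured anti-PD-1 antibodies, rate constants from a 1:1 binding model fit, KD taken as kd/ka and t½ as ln2/(60·kd)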

B2: H4H9008P (antibody, human IgG4 S228P, kappa, V domains shown)
VH: EVQLVESGGGLVRPGGSLRLSCAASGFTFSTYAMAWVRQTPGKGLEGVSAIGGSGDSTYYVDSVKGRFTISRDNSKSTLFLQMNSLRAEDTAVYYCVKVRNYDGSFDIWGQGTMVTVSS
VL: not shown
- Emax, AP1-Luc signal at 100 nM antibody (% of signal without anti-PD-1 antibody) [2]: 150%

B5: H2aM7791N (antibody, V domains shown)
VH: QMQLQQWGAGLLKPSETLSLTCVVYGGSLNGYYWSWIRQSPGKGLEWIGEIDHSGSTNYNPSLKNRVTMSVDTSKIQFSLKLTSVTVADTAVYYCAREGLLPFDYWGQGTLVTVSS
VL: EIVLTQSPGTLSLSPGERVTLSCRASQSVYSNYLAWYQQNPGQAPRLLIYAASNRATGIPDRFSGSGSGTDFTLTISRLEPEDFAVYYCHQYATSPWTFGQGTKVEIK
notes: human variable regions, mouse IgG2a Fc; also called H2M7791N
- Max Geom. Mean MFI @ 100 nM [13]: 1400 MFI
- Emax mean [%] @ 100 nM [4]: 103%
- MFI [7]: 4950 MFI
- ratio of MFI HEK293/hPD-1 to HEK293 parental cells [9]: 18
- % Blocking [14]: -229%
- binding of the mixture (nm) [14]: 0.23 nm

B6: H2aM7798N (antibody, V domains shown)
VH: EVQLLESGGVLVQPGGSLRLSCAASGFTFSNFGMTWVRQAPGKGLEWVSGISGGGRDTYFADSVKGRFTISRDNSKNTLYLQMNSLKGEDTAVYYCVKWGNIYFDYWGQGTLVTVSS
VL: DIQMTQSPSSLSASVGDSITITCRASLSINTFLNWYQQKPGKAPNLLIYAASSLHGGVPSRFSGSGSGTDFTLTIRTLQPEDFATYYCQQSSNTPFTFGPGTVVDFR
notes: human variable regions, mouse IgG2a Fc; also called H2M7798N
- Concentration (M) of Antibody at 150% activation [4]: 7.99e-10 M
- Emax mean [%] @ 100 nM [4]: 239%
- EC50 [5]: 0.0698 nM
- Max Geom. Mean MFI @ 100 nM [5]: 20900 MFI
- % blocking at 50 nM antibody [15]: 100%
- MFI [7]: 23400 MFI
- % blocking at 100 nM antibody [8]: 100%
- IC50 [8]: 0.13 nM
- ratio of MFI HEK293/hPD-1 to HEK293 parental cells [9]: 78.1
- IC50 [16]: 0.073 nM
- % blocking at 200 nM antibody [10]: 93%
- % Blocking [14]: 86%
- binding of the mixture (nm) [14]: 0.01 nm
- IC50 [17]: 0.68 nM

B7: H4H7798N (antibody, human IgG4 S228P, kappa, V domains shown)
VH: B6 VH
VL: DIQMTQSPSSLSASVGDSITITCRASLSINTFLNWYQQKPGKAPNLLIYAASSLHGGVPSRFSGSGSGTDFTLTIRTLQPEDFATYYCQQSSNTPFTFGPGTVVDFRR
notes: human IgG4 Fc
- 100 nM Monkey PD-1-mFc Bound (RU) (monkey PD-1 with mFc [3]): 88 RU
- Kd (monkey PD-1 with mFc [3]): 0.202 nM
- koff (monkey PD-1 with mFc [3]): 0.000127 s⁻¹
- kon (monkey PD-1 with mFc [3]): 630000 M⁻¹ s⁻¹
- t1/2 (monkey PD-1 with mFc [3]): 91 min
- Concentration (M) of Antibody at 150% activation [4]: 1.54e-09 M
- Emax mean [%] @ 100 nM [4]: 202%
- 100 nM Monkey PD-1-mFc Bound (RU) (monkey PD-1 with mFc [6]): 93 RU
- Kd (monkey PD-1 with mFc [6]): 0.137 nM
- koff (monkey PD-1 with mFc [6]): 6.14e-05 s⁻¹
- kon (monkey PD-1 with mFc [6]): 449000 M⁻¹ s⁻¹
- t1/2 (monkey PD-1 with mFc [6]): 188 min
- % Blocking [18]: 106%
- binding of the mixture (RU) [18]: -6 RU
- 500 nM of anti-PD-1 monoclonal antibody (RU) [19]: -6 RU
- EC50 [11]: 0.509 nM
- Max Geom. Mean MFI @ 100 nM [11]: 20300 MFI
- Emax mean [%] @ 100 nM [12]: 343%

B8: H2aM7796N (antibody, V domains shown)
VH: QVQLVESGGGVVQPGRSLRLSCAASGFTFSSYGMHWVRQAPGKGLEWVAIIWSDGDSEYNLDSVKGRFTISRDNSKNTLYLQMNSLRVEDSAVYYCARDRDLEDIWGQGTMVTVSS
VL: DIQMTQSPSSLSASVGDRVTITCRASQGIRNDLGWYQQKPGKAPKRLIYAASNLQSGVPSRFSGSGSGTEFTLTISSLQPEDFATYYCLQHNSYPLTFGGGTKVEIK
notes: human variable regions, mouse IgG2a Fc; also called H2M7796N
- Emax mean [%] @ 100 nM [4]: 121%
- % blocking at 50 nM antibody [15]: 60%
- IC50 [15]: 1.3 nM
- MFI [7]: 49800 MFI
- ratio of MFI HEK293/hPD-1 to HEK293 parental cells [9]: 168
- EC50 [11]: 4.81 nM
- Max Geom. Mean MFI @ 100 nM [11]: 14100 MFI
- % Blocking [14]: 129%
- binding of the mixture (nm) [14]: -0.02 nm

The remaining lines, values ahead:

- Kd [1]: 15.6 nM
- koff [1]: 0.00122 s⁻¹
- kon [1]: 78400 M⁻¹ s⁻¹
- t½ [1]: 9.5 min
- Emax, AP1-Luc signal at 100 nM antibody (% of signal without anti-PD-1 antibody) [2]: 163%
B1: H4xH9119P2 (antibody, human IgG4, V domains shown)
VH: EVQLVESGGGLVQPGRSLRLSCAASGFTFEDYAMHWVRQAPGKGLEWVSGIGWSNVKIGYADSVKGRFTISRDNVRNSLYLQMNSLRTEDTAFYYCVKAYTSMLTLYFDYWGQGTLVTVSS
VL: not shown
notes: H4xH: modified human IgG4 Fc

- 100 nM Monkey PD-1-mFc Bound (RU) (monkey PD-1 with mFc [3]): 84 RU
- Kd (monkey PD-1 with mFc [3]): 2.29 nM
- koff (monkey PD-1 with mFc [3]): 0.00113 s⁻¹
- kon (monkey PD-1 with mFc [3]): 494000 M⁻¹ s⁻¹
- t1/2 (monkey PD-1 with mFc [3]): 10 min
- Emax mean [%] @ 100 nM [4]: 138%
- EC50 [5]: 0.668 nM
- Max Geom. Mean MFI @ 100 nM [5]: 33700 MFI
- 100 nM Monkey PD-1-mFc Bound (RU) (monkey PD-1 with mFc [6]): 115 RU
- Kd (monkey PD-1 with mFc [6]): 0.754 nM
- koff (monkey PD-1 with mFc [6]): 0.000184 s⁻¹
- kon (monkey PD-1 with mFc [6]): 243000 M⁻¹ s⁻¹
- t1/2 (monkey PD-1 with mFc [6]): 63 min
- MFI [7]: 7200 MFI
- % blocking at 100 nM antibody [8]: 98%
- IC50 [8]: 0.14 nM
- ratio of MFI HEK293/hPD-1 to HEK293 parental cells [9]: 70.8
- % blocking at 200 nM antibody [10]: 67%
- IC50 [10]: 3.3 nM
B3: H4xH9048P2 (antibody, V domains shown)
VH: QVQLVQSGAEVKRPGSSVKVSCKVSGVTFRNFAIIWVRQAPGQGLEWMGGIIPFFSAANYAQSFQGRVTITPDESTSTAFMELASLRSEDTAVYYCAREGERGHTYGFDYWGQGTLVTVSS
VL: not shown
notes: human IgG4 Fc with 2 or more amino acid changes (US20100331527)

- EC50 [11]: 1.6 nM
- Max Geom. Mean MFI @ 100 nM [11]: 39800 MFI
- Emax mean [%] @ 100 nM [12]: 134%
B4: H4H9048P2 (antibody, human IgG4 S228P, kappa, V domains shown)
VH: B3 VH
VL: not shown
notes: human IgG4 Fc

- Kd [20]: 9.07 nM
- koff [20]: 0.00211 s⁻¹
- kon [20]: 233000 M⁻¹ s⁻¹
- t½ [20]: 5 min
- Kd [21]: 551 nM
- koff [21]: 0.0191 s⁻¹
- kon [21]: 34600 M⁻¹ s⁻¹
- t½ [21]: 0.6 min
- Kd [22]: 1.75 nM
- koff [22]: 0.000177 s⁻¹
- kon [22]: 101000 M⁻¹ s⁻¹
- t½ [22]: 65 min
B9: H4H9057P2 (antibody, human IgG4, V domains shown)
VH: EVQLVESGGGLVQSGRSLRLSCAASGFTFDDYAMHWVRQPPGKGLEWVSGINWNRGRTGYADSVKGRFTISRDNAKNSLYLQMNDLRVEDTALYYCAKAEQWLDEGYFDYWGQGTLVTVSS
VL: not shown
notes: Fully human; H4H prefix (human IgG4 Fc)
